These results are taken from patent publication US20050037444A1 (INTERCELL, published 2005).

The chains are these.
T1: soluble HLA class II molecule DRA1*0101/DRB1*0401 (human, UniProt P01903 26-216; P01911 30-227, limits assumed)
T1 construct: Recombinant soluble MHC class II heterodimer expressed in SC-2 cells (as in Aichinger et al., 1997); also called soluble DRA1*0101/DRB1*0401 molecules
T1 MHC II alpha: not shown
T1 MHC II beta: not shown

In the test the target is T1, soluble HLA class II molecule …. Nature of the test: competition assay vs biotinylated UD4, L243 capture ELISA.
As to VIVSTLFLISQHQAQA (synthetic peptide) [p24-40 of Seq ID 56 (LPXTGV)], the binding result was “no binding (tested: 200 µM)”.

As for GESLNIIASRYGVSVDQLMAANNLRG (synthetic peptide) [p96-121 of Seq ID 89 (ORF1hom2)], the binding result is listed as “no binding (tested: 200 µM)”.

Take MHVPSFQNNTTATHQN (synthetic peptide) [p254-270 of Seq ID 94 (EMPBP)]: the binding result is “binds”.

As to YDYKYFYSYKVVKGVKKYFSFSQS (synthetic peptide) [p275-299 of Seq ID 94 (EMPBP)], the binding result is on record as “binds”.

As to TIFRYVEGKSLYE (synthetic peptide) [p416-428 of Seq ID 142 (LPXTGVI)], the binding result is on record as “no binding (tested: 200 µM)”.

With KEFKSFYSIRKSSLGVASVAISTL (synthetic peptide) [p6-30 of Seq ID 142 (LPXTGVI)], the binding result is on record as “binds”.

As for MTLPLMALLALSSIVAFVLPRKRKN (synthetic peptide) [p623-647 of Seq ID 142 (LPXTGVI)], the binding result is “no binding (tested: 200 µM)”.

As to IKINHFCVVPQINSFKVIPPYGHNS (synthetic peptide) [p226-251 of Seq ID 94 (EMPBP)], the binding result is “no binding (tested: 200 µM)”.

As to QSWWGLYALLGMLALFIPKFRKESK (synthetic peptide) [p871-896 of Seq ID 56 (LPXTGV)], the binding result is “no binding (tested: 200 µM)”.

For the molecule PSLNIKNVNYQYAVPSYSPT (synthetic peptide) [p306-326 of Seq ID 94 (EMPBP)], the binding result is on record as “binds”.

PKLRSFYSIRKSTLGVASVIVST (synthetic peptide) [p6-28 of Seq ID 56 (LPXTGV)]: the binding result is “binds”.

AGGIFYNQTNQQLLVLCDGMGGHK (synthetic peptide) [p23-47 of Seq ID 114 (POV2)]: the binding result is “no binding (tested: 200 µM)”.

Regarding FMVEGQRVRTISTYAINNTRCTIF (synthetic peptide) [p395-418 of Seq ID 142 (LPXTGVI)], the binding result is on record as “no binding (tested: 200 µM)”.

KLLVLTMSTLFATQIMNSNHAKASV (synthetic peptide) [p4-29 of Seq ID 94 (EMPBP)]: the binding result is on record as “binds”.

For the molecule MNYGYGPGVVTSRTISASQA (synthetic peptide) [p240-260 of Seq ID 74 (ORF1hom1)], the binding result was “binds”.

In the case of IKLVSYDTVKDYAYIRFSVSNGTKA (synthetic peptide) [p209-233 of Seq ID 142 (LPXTGVI)], the binding result is “binds”.

Turning to KDYAYIRFSVSNGTKAVKIVSSTHFNN (synthetic peptide) [p218-244 of Seq ID 142 (LPXTGVI)], the binding result is given as “binds”.

As for ALVFEKSVVIANVGDSRA (synthetic peptide) [p107-124 of Seq ID 114 (POV2)], the binding result was “no binding (tested: 200 µM)”.

With YKVVKGVKKYFSFSQSNGYKIG (synthetic peptide) [p284-305 of Seq ID 94 (EMPBP)], the binding result was “binds”.

Take FPYIPDKAVYNAIVKVVVANIGYEGQ (synthetic peptide) [p620-646 of Seq ID 56 (LPXTGV)]: the binding result was “binds”.

As to NNLRGYLIMPNQTLQIPNG (synthetic peptide) [p117-136 of Seq ID 89 (ORF1hom2)], the binding result is “no binding (tested: 200 µM)”.
